Results as given in publication PMC6010203.

Target: DS_ConC_SOSIP trimer (ConC_SOSIP with the disulfide 201C-433C) (HIV-1 (clade C consensus))
Test: negative-stain electron microscopy

DS_ConC_SOSIP trimer (ConC_SOSIP with the disulfide 201C-433C) (complex)
stoichiometry N: 3
